This note sets out measurements from patent US20170137467A1 (CHROMOTEK, published 2017).

Assay [1] concerns the target T1, BC2T A6K peptide (BC2TA6X library) (human).
T1 construct: also called lysine at position 6
T1 peptide: Ac-PDRKAKVSHWQQ-NH2
The experiment in a line: BC2TA6X library pulldown with immobilized Nb, LC-MS of the supernatant. The method, then:
(§1) To investigate the binding specificity of the BC2T and derived mutants peptide libraries for each amino acid position of the sequence […] (SEQ ID NO:4) were synthesized with acetyl and amide groups located at the N-termini or C-termini respectively (Intavis). […] Incubations were performed in 300 μl PBS/0.01% CHAPS for 1 h on a HulaMixer (Life Technologies). Subsequent to a centrifugation step 10 μl supernatant were analyzed in a LC-MS procedure. Peptides were separated using an UltiMate3000 RSLCnano System (Thermo Scientific), composed of a C18 PepMap100μ-Precolumn (300 μm×5 mm; particle size: 5 μm; pore size: 100 Å—Thermo Scientific) and a C18 analytical column (Acclaim Rapid Separation LC (RSLC) Column: 150 mm×5 mm; particle size: 2.2 μm; pore size: 100 Å—Thermo Scientific). A step gradient was applied starting at 8% and ending after 20 min at 30% eluent B (80% acetonitrile, 20% H₂O, 0.1% formic acid). Peptides were analyzed using a FULL-MS-strategy detected by a Q Exactive Plus mass spectrometer (Thermo Scientific). As maximal injection time 100 ms was chosen while setting the AGC target to 3E6. The resolution was set to 70.000. Half-maximal signal areas were referenced to control precipitation approaches using a GFP-specific nanobody immobilized on agarose beads. All experiments were done in triplicates.

The target of assay [2] is T2, BC2T A6R peptide (BC2TA6X library) (human).
T2 construct: also called arginine at position 6
T2 peptide: Ac-PDRKARVSHWQQ-NH2
The assay is described as above. The method, then: as §1

The next assay has as its target T3, BC2T S8F library peptide (human).
T3 construct: also called BC2TS8X: F
T3 peptide: Ac-PDRKAAVFHWQQ-NH2
The experiment in a line: peptide library pulldown on immobilized Nb, LC-MS of supernatant; ratio vs GFP-Nb control (1 = not captured, 0 = captured).
From the text: (§2) In total, 12 different BC2T libraries displaying all 20 proteinogenic amino acids in one single position of the peptide were used in immunoprecipitation experiments. […] The direct comparison with the GFP-Nb made it possible to determine the quantitative degree of peptide capture without the need of labeled standards. […] The more peptide was captured the more the value approximates 0. It was not possible to discriminate between isoleucine (I) and leucine (L) peptide versions since these peptides are isobaric.
as §1, with “acid).” for “acid). Peptides were analyzed using a FULL-MS-strategy detected by a Q Exactive Plus mass spectrometer (Thermo Scientific). As maximal injection time 100 ms was chosen while setting the AGC target to 3E6. The resolution was set to 70.000. Half-maximal signal areas were referenced to control precipitation approaches using a GFP-specific nanobody immobilized on agarose beads. All experiments were done in triplicates.”

Assay [3] has as its target T4, BC2T Q12P library peptide (human).
T4 peptide: Ac-PDRKAAVSHWQP-NH2
The assay is described as above.
From the text: as §2
as §1, with “acid).” for “acid). Peptides were analyzed using a FULL-MS-strategy detected by a Q Exactive Plus mass spectrometer (Thermo Scientific). As maximal injection time 100 ms was chosen while setting the AGC target to 3E6. The resolution was set to 70.000. Half-maximal signal areas were referenced to control precipitation approaches using a GFP-specific nanobody immobilized on agarose beads. All experiments were done in triplicates.”

The target of assay [4] is T5, BC2T Q12F library peptide (human).
T5 peptide: Ac-PDRKAAVSHWQF-NH2
The assay is described as above.
From the text: as §2
as §1, with “acid).” for “acid). Peptides were analyzed using a FULL-MS-strategy detected by a Q Exactive Plus mass spectrometer (Thermo Scientific). As maximal injection time 100 ms was chosen while setting the AGC target to 3E6. The resolution was set to 70.000. Half-maximal signal areas were referenced to control precipitation approaches using a GFP-specific nanobody immobilized on agarose beads. All experiments were done in triplicates.”

Assay [5] deals with T6, BC2T W10T library peptide (human).
T6 construct: also called BC2TW10X: T
T6 peptide: Ac-PDRKAAVSHTQQ-NH2
The assay is described as above.
From the text: as §2
as §1, with “acid).” for “acid). Peptides were analyzed using a FULL-MS-strategy detected by a Q Exactive Plus mass spectrometer (Thermo Scientific). As maximal injection time 100 ms was chosen while setting the AGC target to 3E6. The resolution was set to 70.000. Half-maximal signal areas were referenced to control precipitation approaches using a GFP-specific nanobody immobilized on agarose beads. All experiments were done in triplicates.”

Assay [6] concerns the target T7, BC2T S8(I/L) library peptide, version 1 (N-terminal acetyl, C-terminal amide).
T7 construct: Ile and Leu versions are isobaric; two versions resolved but not assigned; also called BC2TS8X: I/L1
The description is as above.
From the text: as §2
as §1, with “acid).” for “acid). Peptides were analyzed using a FULL-MS-strategy detected by a Q Exactive Plus mass spectrometer (Thermo Scientific). As maximal injection time 100 ms was chosen while setting the AGC target to 3E6. The resolution was set to 70.000. Half-maximal signal areas were referenced to control precipitation approaches using a GFP-specific nanobody immobilized on agarose beads. All experiments were done in triplicates.”

Assay [7] deals with T8, BC2T Q12E library peptide (human).
T8 peptide: Ac-PDRKAAVSHWQE-NH2
The assay is described as above.
From the text: as §2
as §1, with “acid).” for “acid). Peptides were analyzed using a FULL-MS-strategy detected by a Q Exactive Plus mass spectrometer (Thermo Scientific). As maximal injection time 100 ms was chosen while setting the AGC target to 3E6. The resolution was set to 70.000. Half-maximal signal areas were referenced to control precipitation approaches using a GFP-specific nanobody immobilized on agarose beads. All experiments were done in triplicates.”

In assay [8] the target is T9, BC2T S8C* library peptide (human, also: Abu described as gamma-amino butyric acid).
T9 construct: also called BC2TS8X: C*; C(Abu)
T9 peptide: Ac-PDRKAAV[GABA]HWQQ-NH2
The assay is described as above.
From the text: as §2
as §1, with “acid).” for “acid). Peptides were analyzed using a FULL-MS-strategy detected by a Q Exactive Plus mass spectrometer (Thermo Scientific). As maximal injection time 100 ms was chosen while setting the AGC target to 3E6. The resolution was set to 70.000. Half-maximal signal areas were referenced to control precipitation approaches using a GFP-specific nanobody immobilized on agarose beads. All experiments were done in triplicates.”

Assay [9] addresses T10, BC2T Q12N library peptide (human).
T10 peptide: Ac-PDRKAAVSHWQN-NH2
The assay is described as above.
From the text: as §2
as §1, with “acid).” for “acid). Peptides were analyzed using a FULL-MS-strategy detected by a Q Exactive Plus mass spectrometer (Thermo Scientific). As maximal injection time 100 ms was chosen while setting the AGC target to 3E6. The resolution was set to 70.000. Half-maximal signal areas were referenced to control precipitation approaches using a GFP-specific nanobody immobilized on agarose beads. All experiments were done in triplicates.”

The target in assay [10] is T11, BC2T Q11D library peptide (human).
T11 peptide: Ac-PDRKAAVSHWDQ-NH2
The description is as above.
From the text: as §2
as §1, with “acid).” for “acid). Peptides were analyzed using a FULL-MS-strategy detected by a Q Exactive Plus mass spectrometer (Thermo Scientific). As maximal injection time 100 ms was chosen while setting the AGC target to 3E6. The resolution was set to 70.000. Half-maximal signal areas were referenced to control precipitation approaches using a GFP-specific nanobody immobilized on agarose beads. All experiments were done in triplicates.”

A further assay addresses T12, BC2T S8D library peptide (human).
T12 construct: also called BC2TS8X: D
T12 peptide: Ac-PDRKAAVDHWQQ-NH2
Described as above.
From the text: as §2
as §1, with “acid).” for “acid). Peptides were analyzed using a FULL-MS-strategy detected by a Q Exactive Plus mass spectrometer (Thermo Scientific). As maximal injection time 100 ms was chosen while setting the AGC target to 3E6. The resolution was set to 70.000. Half-maximal signal areas were referenced to control precipitation approaches using a GFP-specific nanobody immobilized on agarose beads. All experiments were done in triplicates.”

Assay [11] deals with T13, BC2T W10Y library peptide (human).
T13 construct: also called BC2TW10X: Y
T13 peptide: Ac-PDRKAAVSHYQQ-NH2
Described as above.
From the text: as §2
as §1, with “acid).” for “acid). Peptides were analyzed using a FULL-MS-strategy detected by a Q Exactive Plus mass spectrometer (Thermo Scientific). As maximal injection time 100 ms was chosen while setting the AGC target to 3E6. The resolution was set to 70.000. Half-maximal signal areas were referenced to control precipitation approaches using a GFP-specific nanobody immobilized on agarose beads. All experiments were done in triplicates.”

Assay [12] deals with T14, BC2T Q12(I/L) library peptide, version 1 (N-terminal acetyl, C-terminal amide).
T14 construct: Ile and Leu versions are isobaric; two versions resolved but not assigned; also called I/L1
The description is as above.
From the text: as §2
as §1, with “acid).” for “acid). Peptides were analyzed using a FULL-MS-strategy detected by a Q Exactive Plus mass spectrometer (Thermo Scientific). As maximal injection time 100 ms was chosen while setting the AGC target to 3E6. The resolution was set to 70.000. Half-maximal signal areas were referenced to control precipitation approaches using a GFP-specific nanobody immobilized on agarose beads. All experiments were done in triplicates.”

For another assay, the target named is T15, BC2T H9M library peptide (human).
T15 peptide: Ac-PDRKAAVSMWQQ-NH2
The assay is described as above.
From the text: as §2
as §1, with “acid).” for “acid). Peptides were analyzed using a FULL-MS-strategy detected by a Q Exactive Plus mass spectrometer (Thermo Scientific). As maximal injection time 100 ms was chosen while setting the AGC target to 3E6. The resolution was set to 70.000. Half-maximal signal areas were referenced to control precipitation approaches using a GFP-specific nanobody immobilized on agarose beads. All experiments were done in triplicates.”

Substitutions are numbered along the chain they refer to. Numbers in names are those of the source. Square brackets hold non-standard residues; d marks the D form. GABA = NCCCC(=O)O

B1: BC2 nanobody (VHH)
VHH: QVQLVESGGGLVQPGGSLTLSCTASGFTLDHYDIGWFRQAPGKEREGVSCINNSDDDTYYADSVKGRFTIFMDNAKDTVYLQMNSLKPEDTAIYYCAEARGCKRGRYEYDFWGQGTQVTVSS
notes: Alpaca VHH, 122 aa; also called BC2-Nb; BC2 nanotrap (BC2-Nb immobilized on agarose/Sepharose beads); not shown: C-terminal 6xHis-tag added by the pHEN6 vector
In the case of B1, the binding result in assay [1] and in [2] was “no binding” in each case.

B2: BC2-Nb(R106E) (VHH)
VHH: B1 VHH with R106E
notes: Headlock mutant; immobilized on beads in the library pulldown
As for B2, the ratio with BC2T S8F library peptide was found to be 0.9; in assay [3], 0.1; in assay [4] it was 0.3; in assay [5], 1.1; in assay [6], 0.5; in assay [7] it was 0.6. In addition, the ratio in [8] was found to be 0.1; in [9], 0.1; in [10], 0.5; with BC2T S8D library peptide, 1; in assay [11] it was 1; in assay [12], 0.1. Besides, the ratio in the assay with BC2T H9M library peptide came out at 0.2.
